Data reported in the nanobody polyreactivity screen of Harvey et al. (2022).

Assay: yeast display, Sf9 membrane polyspecificity reagent, FACS + sequencing; frameworks hold sequencing errors
Summary of the method: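 Polyreactivity labels are assigned by the sorting gate from which each nanobody was recovered. The gates were low and high (top ~1%), set on anti-HA fluorescence for expression and streptavidin fluorescence for reagent binding. Before sorting, galactose-induced (36–48 hours) yeast display cells were stained for 1 hour at 4 °C with 10% biotinylated, detergent-solubilized Sf9 membrane reagent.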

Sequence	polyreactivity (PSR sort gate)
QVQLVESGGGLVQAGGILRLSCAPSGRIFKYYGMGWYRQAPGKERELVAAIYRGSSTNYAHSVKGRFTISRDNAKNTVYLQMNSLKPEDTAVYYCAKVGWSRRYYYWGQGTQVTVSS	high polyreactivity
QVQLVESGGGLVQAGGSLRLSCAASGRIFYFYAMGWYRQAPGKERELVAVISYGGDRTSYADSVKGRFTISRDNAKNTVYLQMNSLKPEDTAVYYCAARPFYRGYYYWGQGTQVTVSS	high polyreactivity
QVQLVESGGGLVQAGGSLRLSCAASGSIFYWYDMGWYRHAPGKEWELVAAISFNVGSTYADSVKGRFTISRDNAKNTFYLQMNSLKPEDTAVYYCNVDAYRTSYEADVYYYTWIYYWGQGTQVTVSS	low polyreactivity
QVKHVESVGGLVQAGGSLRLSCAASGITFVRNAMGWSRQAPGKETDLVAAISSGGGSTYYADSVKGRFTISRDNAKNTVYLQMNSLKPEDTAVYYCNAQGFIYYWLRYDYWGQGTQVTVSS	high polyreactivity
QVQLVESGGGLVQAGGRLRLSCAASGTIFYWNAMVWYRQATGKERELVAAINSGDSTNYADSVKGRFTISRDNAKNTVYFQMYSLKPEDTAVYYCAASIYAALNGGPGYDYWGQGTQVTVSS	low polyreactivity
QVQLVESGGGLFQAGGSLRLSCAPSGFTFSNYAMGWYRQAPGKEREFVAAISGTGGSTYYADSVKGRFTISRDNAKNTVYLQMNSLKPEDTEVYYCYFYFRRQYEHEYWGQGTQVTVSS	high polyreactivity
QVQLVESGGGLVQAGGSLRLSCAASGFTFHDYAMGWYRPAPGKERELVAAITKTGGRTYYADSVKGRFTISRDNAKNTVYLQMNSLKPEVTAVYYCAAKSYWGQGTQVTVSS	high polyreactivity
QVQLVESGGGLVQAGGSLRLSCAASGRIFVRNVMGWYRQAPGQERELVARITSGGSTNYADSVKGRFTISRDNAKNTVYLQINSLKPEDTAVYYCAAQGRHYHRTSTGYDYWGQGTQVTVSS	high polyreactivity
QVQRVESGGGLVQAGGSHRLSCAASGSIFVVYTMGWYRPAPGKERELVAAITQNGGSSTYYADSVKGRFTISRDNAKNTVYLQMNSLKPEDTAVYYCNKDILSPVVRIFKYGYDMDYWGQGTQETVSS	low polyreactivity
QVQLVESGRGLVQAGGSLRVSCAASGSILSINGMGWYRQAPGKERELVATIDGSDGSTFYADSVKGRFTISRDNAKNTVYLQMNSLKPEDTAVYYCAAENFWQTKEYDYWGQGTQVTVSS	low polyreactivity
QVQLVESGGGFVQAGGSLRISCAASGRTFYPYAMGWYRQAPGKERELVAAISRSGGGTYYADSVKGRFTISRDNAKNTVYLQMNSLKPEDTAVDYCAADDGVAIYDYWGQGTQVTVSS	low polyreactivity
QVQLVESGGGLVQAGGSLRLSRDASGIIIYDYDIGWYRKAPGKERELVAAITSSGGSTYYADSVKGRFTLSRDNAKNTVYLQMNSLIPEDTAVYYCAAATRGSGRRYDYWGQGTQVTVSS	high polyreactivity
QVQLEESGGGLVQAGGSLRLSCAASGSIFWLYAMGWYRQAPGKEREFVAAITTSGSSTRYADSVKGRFTISRDNAKNTVYVQMNSLKPEDTAVYYCAARNRTFFQPTYYYWGQGTQVTVSS	high polyreactivity
QVQLVESGGGLVQAGGSLRLSCAASGSTFSGNAMGWYRQAPGKERELVARIRWSTGSTYYADSVKGRFTISRDNAKNTVYLQMNSLKPEDTAVYYCNARGTPWRYGGDYWGQGTQVTVSS	low polyreactivity
QVQLVESGGGLVQAGGSLRLSCAASGIIFRSYAMGWYRQAPGKERELVAAITSGGSTNYADSVKGRFTISRDNAKNTVYLQMHSLKPEDTAVYYCAARWPWYGKLRYYYWGQGTQVTVSS	high polyreactivity
QVKLVESGGGLVQAGGSLRLSCAASGSTFVVNAMGCYRQAPGKERELVAAITQSGGSTFYADSVKGRFTISRDNAKNTVYLQMNSLKPEDTAVYYCAADTYYYYWFACYTEYDYWGQGTQVTVSS	low polyreactivity
QVHLVESGGCLVQAGGSLRLSCSASRSIFPNNDMGWYRQQPGKERELVPAITTRGTSTYYAESVKGRFTISRDYAKNTVYLQMKSLKPEDTAVYFCAVGRRGYSAGGVAYYYWGQGTQVTVSS	low polyreactivity
QDQLVESGGGLVQAGGSLRLSCAASGITFAYYAMGWYRQAPGQERDFVAAINGGGSTNYADSVKGRFTISRDNAKNTVYLQMKSLKAEDTAVYYCNARRAYRAWDYPYDYWGQGTQVTVSS	high polyreactivity
QVQLVESGGGLVQAGGSLRLCCAPSGSIFYGYDMGWYRQAPGKERELVATISWSSGSSTYYADSVKGRFTISRDNAKNTVYLQMNSLKPEDTAVYYCAVDFAIGYRYLGRVDYWGQGTQVTVSS	low polyreactivity
QVQLVESGGGLVQAGGSLRLSCAASGSIFGDNTMGWYRQAPGKERELVAAISWRGGSTYYADSVKGRFTISRDNAKNTVYLQMNSLKPEDTAVYYCIGGPGGYDYWGQGTQVTVSS	low polyreactivity
QVQHVESGGGLVQAGGSLRLSCAASGSIFNTYTMGWYRQAPGKERELVAAISSGGSTYYADSVKGRFSISRDNAKNTVYLHMNSLKPEDTAVYYCAAYGHSFQIYDYWGQGTQVTVSS	low polyreactivity
QVQLGESGGCLVQAGGSLRLICAASGFIFDRYVMGWYRQAPGKESELVAAINRSGGSTYYADSVKGRFTISRDNAKNTVYLQMNSLKRVDTAVYYCADVRPGSFTVEGYYCGQGTQVTVSS	high polyreactivity

Sequence	polyreactivity (PSR sort gate)
QVQLVESGGGLVQAGGSLRLSCAASGGTFYPYAMGWYRPAPGKERELVAAISASDDNTYYADSVKGRFTISRDNAKNTVYLQMNSLKPEDTAVYYCAKRSYFYPYYYWGQGTQVTVSS	high polyreactivity
QDQLVESCGGLVQARGSLRLSCAASGFTFRYNAMGWYRQAPGKERELVAAITGSTGTTYYADSVKGRFTISRDNAKNTVYLQMNSLKPEDTAVYYCAATFRDQHGSLYGYWGQGSQVTVSS	high polyreactivity
QVQLVESGGGLVQAGGSLRLSCAASGSIFYSNVMGWYRQAPGKERELVAAIRYSGVGTYYADSVKGRFTISRDNAKNTVYLQMNSLKPEDTAVYYCNAVTKVGYLRRRDYWGQGTQVTVSS	low polyreactivity
QVQLVESGGGLVQAGGSLRLSCAASGSTFDGNVMGWYRQAPGKERELVADIDSGGSTNYADSVKGRFTISRDNAKNTVYLQMNSLKPEDTAVYYCKAEWDDSFIRWFRYRGNYWGQGTQVTVSS	low polyreactivity
QVQLVESGGGLVQAGGSLRLSCAASGSTFGIYDMGWYRQAPGKERELVAAITSGGDTNYADSVKGRFTISRDNAKNTVYFQKNSLKPEDTAVYYCNARDGGQGNYSARYDYWGQGTQVTVSS	low polyreactivity
QVQLVESGGGLVQAGGSLRLSCAASGSTFRYYARGWYRPAPGKERELVAAITRSGGSTYYADSVKGRFTISRDNAKNTVYLQMNSLKPEDTAVYYCAARWAYPHKTYGTEQTEYDYWGQGTQVTVSS	high polyreactivity
QVQLVQSGGGLVQARGILRLSCPPSGINFWYNAMGWYSQAQGKERELVASISTGGRTYYADSVKGRFTFSRDNAKNTVYLQMNSLKPVDTAVYYCAAASRVGFLYYYWGQGSQVTVSS	low polyreactivity
QVQLVESGGGLVQAGGSLRLSCAASGFIFPTYAMGWYRQAPGKERELVATITTNAGGTHYADSVKGRFTISRDNAKNNVYIQMNSLKPEDTAVYYCNAYGPNIYSSRYDYWGQGTQVTVSS	low polyreactivity
QVQLVESGGGLVQAGGSLRLSCAASGFTFYSYAMGWYRQAPGKEWELVAAISRRGGSTYYADSVKGRFTISRDNAKNTVYLQMNCLKPEDTAVYYCAAEDSNSRYLYGYDYWGQGTQVTVSS	high polyreactivity
QVQLVESGGGLVQAGGSLRLSCAASGSIVVGYAMGWYRQAPGKERELVAAITGSGTRTYYADSVKGRFTISRDNAKNTVYLQMNSLKPEDTAVYYCAAPLSYKNVKYDYWGQGTQVTVSS	low polyreactivity
QVQLVESGGGLVQAGGSLRLSCAASGFTFDFYAMGWYRQAPGKERELVAAISKNDGTTYYADSVKGRFTISRDNAKNTVYLQMNSLKPEDTAVYYCAADVELWVFRGQQYDYWGQGTQVTVSS	low polyreactivity
QVQLVESGGGLVQAGGSLRLSCAASGGIFPYYAMGWYRQAPGKERELVADISSGGSTYYADSVKGRFTISRDNAKNTVYFQMNSLKPEDTAVYYCAADAGQYFTYSGDDNHDYWGQGTQVTVSS	low polyreactivity
QVKLVESGGGLVQAGGSLRLSCAASGSIYWYAMGWYRQAPGKERELVAAISRRGGSTYYADSVKGRFTISRDNAKNTVYLQMNSLKPEDTAVYYCAVGIYGEYDYWGQGTQVTVSS	high polyreactivity
QVQLVESGGGLVQAGGSLRLSSAASGLTFFTYTMGWYRQAPGKERELVATINSSGGTTYYADSVKGRFTISRDNAKNTVYLQMNSLKPEDTAVYFCAKRFSPRYYYWGQGTQVTVSS	high polyreactivity
QVQLVESGGGLVQAGGSLRLSCAASGSIIYKYAMGWYRQAPGKERELVAAINSGGRTYYADSVKGRFTISRDNAKNTVYLQMNSLKPEDTAVYYCNAGTYYPGRYDYWGQGTQVTVSS	low polyreactivity
QVMLVESGGGLVQAGGSLRLSCAASGSTFEYYAMGWYRQAPGKERELVATISIDGRTNYADSVKGRFTISRDNAKNTVYLQMNSLNPEDTAVYYCGKRVVVWYFGTGDYWGQGTQVTVSS	low polyreactivity
QVQLVESGGGLVQAGGSLRLSCAASGSIFSTYAMGWYRQAPGKERELVAAISGSGGRTYYADSVKGRFTISRDNAKNTVYLQMNSLKPEDTAVYYCAADGGSVKTPGYYYWGQGTQVTVSS	high polyreactivity
QVQLVESGGGLVQAGGSLRLICAASGLIFDYYRMGWYRQATGKQRELVAAITSSGSRTYYADSVKGRFTISRDNAKKTVYLQMNSLNPEDTAVYFCARGGGRRKGLVDYWGQGTQVTVSS	low polyreactivity
QVQLVESGGGLVQAGGSLRLSCAASGRTFGRYAMGWYRQAPGKERELVAAINKNGGSTFYADSVKGRFTISRDNAKNTVYLQMNSLKPEDTAVYYCNRTAYVRGYPPWGYDYWGQGTQVTVSS	low polyreactivity
QVQLVESGGGLVQAGGSLRLSCAASGFTFYHNAMGWYRPAPGKERELVAAITWDSGSTYYADSVKGRFTISRDNAKNTAYLQMNSLKPEDPAVYYCAADIASGYYWYDYWGQGTQVTVSS	low polyreactivity
QVQHVESGGGLVQAGGSLRLSCAASGRTYVNYVMGWYRQAPGKEREFVAAISRNGGSTYYADSVKGRFSISRDNAKYTFYLQMNSLKPEDTAVYYCAARPRRRYYGSDSWGQGTQVTVSS	high polyreactivity
